Reference: US20140377253A1 (published 2014)
Where a chain is given by its changes, count along the chain named. In names and notes the source's numbering stands.

T1: FcγRIIB expressed on cells (UniProt P31994 43-310)
T1 chain: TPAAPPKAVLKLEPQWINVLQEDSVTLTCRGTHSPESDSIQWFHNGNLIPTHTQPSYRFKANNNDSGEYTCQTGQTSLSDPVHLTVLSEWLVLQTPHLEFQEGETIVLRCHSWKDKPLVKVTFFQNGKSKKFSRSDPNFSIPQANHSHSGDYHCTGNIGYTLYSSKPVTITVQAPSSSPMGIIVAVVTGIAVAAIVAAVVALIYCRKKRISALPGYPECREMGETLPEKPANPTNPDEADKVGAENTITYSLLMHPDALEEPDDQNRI

B1: V263L (protein)
chain: APELLGGPSVFLFPPKPKDTLMISRTPEVTCVLVDVSHEDPEVKFNWYVDGVEVHNAKTKPREEQYNSTYRVVSVLTVLHQDWLNGKEYKCKVSNKALPAPIEKTISKAK
B2: V266L (protein)
chain: B1 chain with L33V, V36L
B3: V273S (protein)
chain: B1 chain with L33V, V43S
B4: V305K (protein)
chain: B1 chain with L33V, V75K
B5: V273Y (protein)
chain: B1 chain with L33V, V43Y
B6: V273L (protein)
chain: B1 chain with L33V, V43L
B7: V273F (protein)
chain: B1 chain with L33V, V43F
B8: V273E (protein)
chain: B1 chain with L33V, V43E
B9: V305W (protein)
chain: B1 chain with L33V, V75W
B10: V273C (protein)
chain: B1 chain with L33V, V43C
B11: V273M (protein)
chain: B1 chain with L33V, V43M

These binders were tested against FcγRIIIA expressed on cells (UniProt P08637 17-254) (assay: FACS).
Sequence of FcγRIIIA expressed on cells (P08637 17-254): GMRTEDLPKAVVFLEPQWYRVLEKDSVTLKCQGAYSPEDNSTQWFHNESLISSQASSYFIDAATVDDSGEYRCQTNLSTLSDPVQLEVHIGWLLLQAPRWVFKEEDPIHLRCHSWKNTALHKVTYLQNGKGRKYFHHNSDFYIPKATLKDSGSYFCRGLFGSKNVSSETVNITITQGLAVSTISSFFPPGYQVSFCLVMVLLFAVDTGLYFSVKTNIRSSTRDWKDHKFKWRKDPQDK

Row | Binder | EC50 [nM]
1 | B1 | 1.52
2 | B2 | 0.76
3 | B3 | 1.33
4 | B4 | 0.51
5 | B5 | 3.19
6 | B6 | 0.69
7 | B7 | 2.01
8 | B8 | 1.78
9 | B9 | 0.74
10 | B10 | 1.19
11 | B11 | 1.59

Target: T1, FcγRIIB expressed on cells
Test: FACS

Row | Binder | EC50 [nM]
12 | B1 | 1.8
13 | B2 | 2.22
14 | B3 | 1.72
15 | B4 | 1.93
16 | B5 | 1.18
17 | B6 | 1.66
18 | B7 | 1.08
19 | B8 | 1.66
20 | B9 | 2.86
21 | B10 | 2.03
22 | B11 | 1.63
